Experiment [1] deals with T1, GFP:NPH3 from transgenic Arabidopsis nph3-7 (Arabidopsis thaliana, UniProt Q9FMF5 1-746, phosphoserine at 744 upon blue light irradiation (α-pS744 antibody); dephosphorylated on prolonged irradiation or re-transfer to darkness).
T1 construct: NPH3, Arabidopsis thaliana; cloned into pH7WGF2; S746 is the last residue; source: Arabidopsis nph3-7 seedlings, stably expressed (35S promoter), anti-GFP immunoprecipitate (GFP-Trap beads); not shown: GFP, N-terminal, kept
T1 sequence (looked up): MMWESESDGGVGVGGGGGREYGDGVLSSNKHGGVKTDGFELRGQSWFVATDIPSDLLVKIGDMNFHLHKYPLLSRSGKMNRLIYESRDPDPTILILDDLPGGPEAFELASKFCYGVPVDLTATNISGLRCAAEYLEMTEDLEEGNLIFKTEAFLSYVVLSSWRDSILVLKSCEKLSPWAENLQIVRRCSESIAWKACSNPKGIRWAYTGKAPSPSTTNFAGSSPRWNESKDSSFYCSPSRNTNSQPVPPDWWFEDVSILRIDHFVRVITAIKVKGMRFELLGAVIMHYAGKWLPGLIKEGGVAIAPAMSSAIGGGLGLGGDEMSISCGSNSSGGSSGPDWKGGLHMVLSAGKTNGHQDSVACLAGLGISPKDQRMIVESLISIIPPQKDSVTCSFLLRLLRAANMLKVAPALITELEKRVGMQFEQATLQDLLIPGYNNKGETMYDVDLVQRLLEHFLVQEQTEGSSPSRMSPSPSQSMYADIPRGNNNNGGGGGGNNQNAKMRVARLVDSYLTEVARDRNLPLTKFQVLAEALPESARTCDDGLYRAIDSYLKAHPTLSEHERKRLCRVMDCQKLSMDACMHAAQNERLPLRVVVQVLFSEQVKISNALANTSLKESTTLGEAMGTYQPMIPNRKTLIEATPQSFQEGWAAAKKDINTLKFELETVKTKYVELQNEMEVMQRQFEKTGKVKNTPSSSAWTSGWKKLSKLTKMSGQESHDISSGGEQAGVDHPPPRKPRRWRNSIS
Nature of the experiment: far-Western, overlay or dot blot; anti-GFP immunoprecipitates from blue-light-treated N. benthamiana leaves (10 μmol m^-2 s^-1, 40 min) or Arabidopsis nph3-7 seedlings (1 μmol m^-2 s^-1) separated by SDS-PAGE, on nitrocellulose; overlaid with RGS(His)6-14-3-3 omega at 20 μg ml^-1 in 50 mM MOPS pH 6.5, 20% glycerol, 5 mM MgCl2, 2 mM DTT, overnight at 4 °C; anti-RGS(His)6 detection. To be noted: both partners purified.

The target in experiment [2] is T2, GFP:NPH3 from N. benthamiana (Arabidopsis thaliana, UniProt Q9FMF5 1-746, phosphoserine at 744 upon blue light irradiation only (α-pS744 antibody)).
T2 construct: NPH3, Arabidopsis thaliana; cloned into pH7WGF2; S746 is the last residue; source: N. benthamiana leaves, transiently transformed (35S promoter), anti-GFP immunoprecipitate (GFP-Trap beads); not shown: GFP, N-terminal, kept
T2 sequence (looked up): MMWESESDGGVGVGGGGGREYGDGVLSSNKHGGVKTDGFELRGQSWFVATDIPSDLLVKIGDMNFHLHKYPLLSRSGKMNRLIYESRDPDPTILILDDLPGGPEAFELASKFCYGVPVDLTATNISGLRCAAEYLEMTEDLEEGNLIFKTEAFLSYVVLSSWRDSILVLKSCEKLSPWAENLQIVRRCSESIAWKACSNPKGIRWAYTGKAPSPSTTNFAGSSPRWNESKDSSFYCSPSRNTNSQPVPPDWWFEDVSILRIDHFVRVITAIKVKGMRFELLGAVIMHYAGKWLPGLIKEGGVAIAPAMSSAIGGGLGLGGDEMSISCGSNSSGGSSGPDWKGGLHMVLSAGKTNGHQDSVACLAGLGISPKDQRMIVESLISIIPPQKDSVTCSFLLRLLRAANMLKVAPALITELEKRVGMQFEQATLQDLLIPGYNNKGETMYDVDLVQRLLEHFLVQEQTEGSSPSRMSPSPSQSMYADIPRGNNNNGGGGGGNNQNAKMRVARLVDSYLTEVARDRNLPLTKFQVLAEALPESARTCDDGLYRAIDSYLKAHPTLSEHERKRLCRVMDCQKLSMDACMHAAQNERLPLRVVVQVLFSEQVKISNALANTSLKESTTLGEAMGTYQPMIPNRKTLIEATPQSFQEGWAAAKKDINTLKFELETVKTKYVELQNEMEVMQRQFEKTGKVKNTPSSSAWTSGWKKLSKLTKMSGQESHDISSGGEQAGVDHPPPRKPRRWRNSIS
The description is as above. To be noted: both partners purified.

Data on 1 molecule can be found in article PMC8531446, “Light-triggered and phosphorylation-dependent 14-3-3 association with NON-PHOTOTROPIC HYPOCOTYL 3 is required for hypocotyl phototropism” (Nature Communications, 2021).

B1: RGS(His)6-tagged Arabidopsis 14-3-3 isoform omega (natural protein, UniProt Q01525 1-259, looked up)
chain: MASGREEFVYMAKLAEQAERYEEMVEFMEKVSAAVDGDELTVEERNLLSVAYKNVIGARRASWRIISSIEQKEESRGNDDHVTAIREYRSKIETELSGICDGILKLLDSRLIPAAASGDSKVFYLKMKGDYHRYLAEFKTGQERKDAAEHTLAAYKSAQDIANAELAPTHPIRLGLALNFSVFYYEILNSPDRACNLAKQAFDEAIAELDTLGEESYKDSTLIMQLLRDNLTLWTSDMQDDAADEIKEAAAPKPTEEQQ
notes: 14-3-3 isoform omega, Arabidopsis; cDNA in the expression vector pQE-30; also called purified recombinant 14-3-3 proteins; RGS(His)6-tagged 14-3-3; source: E. coli M15, purified (Ni2+-NTA agarose, native conditions)
Turning to B1, the binding result in experiment [1] and in experiment [2] was “binds” in each case.
